From publication PMC3197213 (Structure (London, England : 1993), 2011) come the findings set out here.

The experiment concerns the target rat syntaxin-1A SNARE motif (residues 191-253) (rat, UniProt P32851 191-253). Nature of the experiment: NMR titration.

Sequence of rat syntaxin-1A SNARE motif (residues 191-253) (P32851 191-253): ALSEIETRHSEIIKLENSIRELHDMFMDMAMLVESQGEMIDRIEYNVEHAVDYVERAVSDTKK

B1: Rat Munc13-1 MUN-CD module (1148-1407,EF,1453-1531 fragment) (domain or fragment)
chain: not shown
For orientation: Kd means the equilibrium constant for the complex coming apart. The low end stands for tighter binding, the high end for weaker binding. Turning to B1, the Kd was > 300 µM.
